{
  "source": "patent US6372459B1",
  "about": "“N-acetyl amino acid racemase” (Degussa AG, priority 1999, dated 2002)",
  "key": {"[1]": {"assay": "standard enzyme test for racemase (AAR) activity, HPLC detection", "format": "biochemical, Amycolatopsis orientalis subspecies lurida", "source_text": "The AAR activity was followed up in a coupled enzymatic assay (Diagram 1), in that the formation of a deacetylated amino acid from an N-acetyl-D-amino acid, methionine here, was detected using the HPLC system I. The L-specific […] from pig kidneys or Aspergillus oryzae served as the auxiliary enzymes. [drawing 1]\nFurther characterization of the AAR took place using the HPLC system II. Using this system, it was possible to study the activity of the AAR directly. In this way, it was possible to do without the auxiliary enzyme, the acylase, so that it was possible to avoid disruptive interference activity.\nCrude extracts of the superexpression clone, […]. purified enzyme fractions, were used in an enzyme test, in that it was possible to detect the formation of L-methionine from N-acetyl-D-methionine (see Diagram 1), via HPLC:\nThe standard enzyme test (modified according to Tokuyama et al., Appl. Microbiol. Biotechnol. (1994), 40, 835-840; ibid., Appl. Microbiol. Biotechnol. (1995a), 42, 853-859), was composed as follows:\nSolvent: Tris/HCl, pH 7.5, 50 mM\nN-acetyl-D-methionine 25 mM\nAcylase I (ASch or AAsp) 1 U\nProtein 2-150 μg purified protein or total protein\nIn this connection, acylase I and Co^2+ are present in excess, so that the AAR reaction is the step that determines the speed. Incubation took place for 10-40 min at 30° C. The reaction was then stopped by boiling for 3 min. Analysis of the reaction products took place using HPLC (System I).\nUnless mentioned otherwise, acylase I from pig kidneys (ASch) was used in the enzyme test, and Co^2+, was used as the ion (CoCl2×6H2O). Alternatively, however, acylase I from Aspergillus oryzae (AAsp) was also used.\nIn assays that were analyzed using the HPLC system II, the acylase could be left out, since it is possible to separate and analyze N-acetyl amino acids directly, enantioselectively, with this system.\nOther than Co^2+ (CoCl2×6H2O), other bivalent ions, such as MnCl2×4H2O, […], and MgCl2×6H2O were used in various concentrations (0.1-10 mM).\nSubstrate inhibition was tested in that the activity of the AAR was mixed with 25 to 400 mM N-acetyl-D-methionine as the substrate."}, "[2]": {"assay": "standard enzyme test for racemase (AAR) activity, HPLC detection", "format": "biochemical, Amycolatopsis orientalis subspecies lurida", "settings": "N-unprotected amino acids as substrate"}},
  "data": [
    {"molecule": "AAR from A. orientalis subspecies lurida: N-acetyl amino acid racemase (SEQ ID NO: 2) from Amycolatopsis orientalis subspecies lurida, natural or recombinant enzyme (protein) VKLSGVELRRVRMPLVAPFRTSFGTQSERELLLVRAVTPAGEGWGECVAMEAPLYSSEYNDAAEHVLRNHLIPALLAAEDVTAHKVTPLLAKFKGHRMAKGALEMAVLDAELRAHDRSFAAELGSTRDSVACGVSVGIMDSIPHLLDVVGGYLDEGYVRIKLKIEPGWDVEPVRQVRERFGDDVLLQVDANTAYTLGDAPLLSRLDPFDLLLIEQPLEEEDVLGHAELAKRIRTPICLDESIVSAKAAADAIKLGACQIVNIKPGRVGGYLEARRVHDVCAAHGIAVWCGGMIETGLGRAANVALASLPGFTLPGDTSASGRFYRTDITEPFVLDAGHLPVPTGPGLGVTPIPDLLDEVTTEKAWIGS", "values": [
      {"measurement": "optimum pH", "setting": "[1]", "result": 8},
      {"measurement": "increase in the activity as compared with the activity without metal ion", "setting": "[1]; 1 mM CoCl2×6H2O in the assay", "result": 1250, "unit": "%"},
      {"measurement": "specific AAR activity after purification", "setting": "[1]; 2 mM CoCl2×6H2O in the assay", "result": 30.6, "unit": "U/mg"},
      {"measurement": "specific activity higher than the one found for racemase by Tokuyama and Hatano", "setting": "[1]; 2 mM CoCl2×6H2O in the assay", "result": "approximately 30.8%"},
      {"measurement": "activity", "setting": "[1]; 10 mM CoCl2×6H2O in the assay", "result": 37.5, "unit": "U/mg"},
      {"measurement": "activity with Mg in comparison with cobalt substitution", "setting": "[1]; MgCl2×6H2O at 10 mM, standard enzyme assay", "result": "about 40%"},
      {"measurement": "activity with Mn in comparison with cobalt substitution", "setting": "[1]; MnCl2×4H2O at 10 mM, standard enzyme assay", "result": "about 40%"},
      {"measurement": "substrate concentration at which substrate inhibition occurs", "setting": "[1]; N-acetyl-D-methionine as substrate, 25 to 400 mM tested", "result": "greater than 200 mM"},
      {"measurement": "AAR activity in crude extracts of the expression clone", "setting": "[1]; crude extracts of E. coli BL21 (DE3) with pAAR3-21I", "result": "0.6-1.2 U/mg total protein"},
      {"measurement": "more active than the racemase from A. sp. TS-1-60", "setting": "[1]; same CoCl2×6H2O concentration in the assay", "result": 152, "unit": "%"},
      {"measurement": "conversion of amino acids not protected with N-acetyl", "setting": "[2]", "result": "does not convert"},
      {"measurement": "conversion of amino acids not protected with N-acetyl", "setting": "[2]; listed as AAR", "result": "not converted"}
    ]}
  ]
}
